This test has as its target Eno_(N-Strep), N-terminally Strep-tagged enolase encoded at its native locus (Bacillus subtilis), P37869. In words: pull-down. The settings on record: remark: other sources report otherwise.

Sequence of Eno_(N-Strep), N-terminally Strep-tagged enolase encoded at its native locus (Bacillus subtilis), P37869 (P37869 whole entry): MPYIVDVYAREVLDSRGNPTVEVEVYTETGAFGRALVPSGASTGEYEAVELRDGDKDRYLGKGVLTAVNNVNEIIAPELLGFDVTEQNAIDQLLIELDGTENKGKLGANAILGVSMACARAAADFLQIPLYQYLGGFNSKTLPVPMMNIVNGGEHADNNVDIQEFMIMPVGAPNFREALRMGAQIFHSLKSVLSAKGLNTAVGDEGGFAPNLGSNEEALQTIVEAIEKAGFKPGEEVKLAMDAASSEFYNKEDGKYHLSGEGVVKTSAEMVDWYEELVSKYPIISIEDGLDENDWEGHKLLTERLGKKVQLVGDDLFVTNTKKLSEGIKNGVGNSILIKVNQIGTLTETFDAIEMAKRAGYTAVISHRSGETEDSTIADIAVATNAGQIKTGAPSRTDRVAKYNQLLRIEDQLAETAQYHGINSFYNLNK

B1: RNase Y (native) of B. subtilis, O31774 1-520 (enzyme)
chain: MTPIMMVLISILLILLGLVVGYFVRKTIAEAKIAGARGAAEQILEDAKRDAEALKKEALLEAKDEIHKLRIDAEQEVRERRNELQKQENRLLQKEENLDRKHEGIDKREAMLEKKDHSLNERQQHIEEMESKVDEMIRMQQSELERISSLTRDEAKQIILERVENELSHDIAIMTKETENRAKEEADKKAKNILSLALQRCAADHVAETTVSVVNLPNDEMKGRIIGREGRNIRTLETLTGIDLIIDDTPEAVILSGFDPIRRETARIALDKLVQDGRIHPARIEEMVEKSRREVDDYIREMGEQTTFEVGVHGLHPDLIKILGRLKFRTSYGQNVLKHSMEVAFLAGLMASELGEDAKLAKRAGLLHDIGKAIDHEVEGSHVEIGVELATKYKEHPVVINSIASHHGDEEPTSIIAVLVAAADALSAARPGARSETLENYIRRLEKLEEISESYEGVEKSFAIQAGREVRIMVKPDSINDLEAHRLARDIRKRIEDELDYPGHIKVTVIRETRAVEYAK
Molecule B1 displayed a less RNase Y co-eluted after RNase A treatment of the extract of 20 to 30%.

The record behind these values is paper PMC7834092.
